Results taken from patent US12419937B2, “High concentration alpha-glucosidase compositions for the treatment of Pompe disease” (Amicus Therapeutics, Inc., priority 2012, dated 2025).
“Also recorded” adds a separate entry of the source. Structures can show the parent of a compound that is named as a salt. Each block holds one compound with its values, some of them ahead of it.

Tests used:
GAA KO mice [1] = assay: rhGAA activity in heart and diaphragm of GAA KO mouse (Example 6); format: in vivo; settings: co-administered with 1-DNJ-HCl vs ERT monotherapy
Procedure: Heart and Diaphragm tissue homogenates were harvested and rhGAA activity was measured using the fluorogenic substrate (4-MUG).

[2] = tested on: cell lines derived from late-onset Pompe patients with the IVS 1 (−13 T>G) splicing defect; assay: GAA levels in cell lines derived from late-onset Pompe patients; format: cell-based, human; settings: alone and in combination with hrGAA
rhGAA (e.g., Myozyme®) = target: T1, rhGAA (e.g., Myozyme®) (Homo sapiens, UniProt P10253); assay: rhGAA enzyme inactivation in citrate anti-coagulated whole blood at 37° C. (Examples 7, 8); format: in vitro ADME
T1 construct: purchased Genzyme Corp; host or cells: Chinese hamster ovary cell line
Procedure: Aliquots were collected at 0, 2, 4, 8 and 24 hrs and centrifuged to obtain plasma. These plasma samples were then diluted in potassium acetate buffer (pH 4.0) and assayed for GAA activity using the 4-methylumbeliferyl-α-glucose (4-MUG) fluorogenic substrate. The measured GAA activity for individual samples at each time point was normalized to the 0 hr and expressed as % of initial activity. Data from 4 independent experiments were analyzed to obtain the mean (and standard deviation) and plotted versus time to assess the loss of enzyme activity over this time course.
Aliquots were collected at 0, 3 and 6 hrs and centrifuged to obtain plasma. These plasma samples were then diluted in potassium acetate buffer (pH 4.0) and assayed for GAA activity using the 4-methylumbeliferyl-α-glucose (4-MUG) fluorogenic substrate. The measured GAA activity for individual samples at each time point was normalized to the 0 hr and expressed as % of initial activity.
Moreover, since Myozyme® has a long plasma half-life (reported to be more than 3 hrs), there is a high probability that an appreciable amount of the enzyme remains in the circulation many hours after the infusion that would also be prone to inactivation.
Based on human plasma PK data, these concentrations are readily obtainable in the clinic.

GAA KO mice [3] = assay: Myozyme® tissue uptake in GAA KO mice with and without oral 1-DNJ-HCl (Example 3); format: in vivo, mouse; settings: 10, 100, 1000 mg/kg oral 1-DNJ-HCl with 10 mg/kg Myozyme® IV weekly; up to 7 days post injection
Procedure: Five groups of GAA KO mice were administered one of the following formulations: […]
(2) 10 mg/kg of Myozyme® IV once per week, for up to three weeks
Tissue homogenates were generated for analysis. Enzymatic activity as determined using a 4-MUG fluorogenic substrate assay.

[4] = rat, in vivo, po, 30 mg/kg
[5] = target: T2, recombinant human GAA (Myozyme®) (Homo sapiens, UniProt P10253); assay: SYPRO Orange thermal stability assay (heat-induced denaturation); format: physicochemical
T2 construct: purchased Genzyme Corp
Text: The thermal stability assay utilizes heat to induce protein denaturation, which is monitored using a SYPRO Orange dye that fluoresces upon binding to hydrophobic amino acids (which are not exposed in a folded protein).
FIG. 5 depicts the results of a thermal stability assay that utilizes heat to induce protein denaturation, which is monitored using a SYPRO Orange dye that fluoresces upon binding to hydrophobic amino acids (which are not exposed in a folded protein).
Denaturation is monitored using a SYPRO Orange dye that fluoresces upon binding to hydrophobic amino acids (which are not exposed in a folded protein).
The thermal stability was performed at pH 7.4 for two formulations, which corresponds to the pH of the ER.

[6] = Solubility of Lumizyme® in the presence of 1-DNJ-HCl and excipients (Example 12); format: physicochemical; settings: for Protein solubility: phosphate buffer
Procedure: A vial of Lumizyme® containing 52.5 mg protein, 210 mg mannitol, 0.5 mg polysorbate 80, 9.9 mg Na2HPO4×7H2O, and 31.2 mg NaH2PO4×H2O was dissolved in a minimal volume of water (1 mL added) yielding 1.2 mL of protein solution. Five 240-μL aliquots (each containing 10.5 mg protein) were transferred to Amicon Ultra 0.5 mL 30 kDa cutoff centrifugal filter devices and centrifuged for 10 min at 14,000×g in an Eppendorf centrifuge to obtain about 50 μL of retentate.
The original excipients present in the composition, i.e., mannitol and polysorbate 80 were exchanged for new excipients to test protein solubility (keeping the same buffer conditions). The following excipient solutions were prepared for the exchange using the original phosphate buffer:
For exchanging excipients, 5.2 mg Na2HPO4 and 27.1 mg NaH2PO4 were dissolved in 10.3 mL water to prepare the washing/excipient exchange phosphate buffer of approximately 26 mM. A volume of 8 mL of the buffer for excipient exchange was supplemented with 160 mg/mL of the small molecule ligand (to prepare excipient 1, 3, 4 and 5 solutions), while 2 mL was supplemented with 32 mg/mL ligand for excipient 2 (100 mM Arginine). Each of the excipients were dissolved in 2 mL of this buffer at the concentrations listed above.
An excipient solution was added to each separate filter device to achieve a total volume of 0.5 mL. Each filter device was centrifuged for 15 min at 14,000×g in a bench top Eppendorf centrifuge to retain approximately 25 μL. The units were re-filled with the same excipient solution to 0.5 mL and centrifuged again (this process was repeated 2 times). This procedure efficiently replaced mannitol and polysorbate 80 with excipients described above, diluting the original constituents by about 1:1000. All filtrates for each excipient were collected and examined for any protein leaks through the filter.
Each centrifugal filter device was inverted in a clean tube, and the concentrated protein solution was collected from each filter device by centrifugation for 2 min at 1000×g. The volume of each sample was determined (66 μL, corresponding to a target protein concentration of 160 mg/mL), and it was confirmed that no visible precipitate was observable in each sample. Samples were transferred back to their respective filter devices and centrifuged for an additional 5 min. Samples were then collected by inversion of the filters into clean tubes and centrifuging for 2 min at 1000×g to yield about 37 μL of retentate (corresponding to >280 mg/mL protein based on a total initial concentration of 10.5 mg protein).
The samples were vortexed and incubated for 1 hr at room temperature to equilibrate liquid and solid phases followed by centrifugation for 10 min at 14,000×g. Again, no visible precipitate was observed. Two-three 10 μL aliquots were taken from the supernatant of each sample (depending on available volume of the liquid phase), and diluted 1:1000 in two steps. Protein concentration was measured by UV absorbance at 280 nm, and the maximum protein solubility was calculated according to a highly reproducible calibration curve. The calibration curve was prepared by dissolving 6.8 mg of Myozyme® (alglucosidase alpha) lyophilized powder (containing 1.16 mg protein) in 1.16 mL of water followed by a serial dilution in deionized water. Absorbance was measured at 280 nm in a 1 cm light-pass quartz semi-micro cuvette using 0.5 mL aliquots.

GAA KO mice [7] = assay: Repeat subcutaneous dosing of rhGAA or rhGAA + 1-DNJ co-formulation in GAA KO mice (Example 13); format: in vivo, mouse; settings: 4 doses Lumizyme 20 mg/kg +/− 1-DNJ 30 mg/kg SQ at 3-4 day intervals, 3 days after the last dose
Procedure: 12-week old male GAA KO mice in groups of 7 were used in the present study. Each group of mice was administered one of the following treatments:
(2) Lumizyme® alone (20 mg/kg) delivered subcutaneously (SQ); or
(3) Co-formulated Lumizyme® (20 mg/kg) and 1-DNJ (30 mg/kg) SQ.
Each of the treatments were administered to their respective treatment group for a period of 2 weeks. The treatments were administered on Monday and Thursday of each week. SQ injections were administered between the shoulder blades of each mouse receiving treatment. A total of 4 doses was administered to each study animal. Diphenhydramine was administered intraperitoneally (IP) before the 3rd and 4th doses.
rhGAA and glycogen levels were determined according to the following sampling protocol. Blood was taken from each study animal after the 4th dose for plasma pharmacokinetic analysis. GAA activity, Western blots, and 1-DNJ levels were determined for plasma samples taken 2 and 4 hours after the last SQ dose.
Tissue samples were collected to determine rhGAA uptake 3 days following the last dose of the study (i.e., 3 days post dose 4). Tissue samples included heart, diaphragm, tongue, brain, spleen, liver, biceps, triceps, quadriceps, soleus, gastrocnemius, ventral skin and dorsal skin from the SQ injection site. Tissue samples were also collected to determine glycogen concentration 14 days following the last dose of the study (i.e., 14 days post dose 4).

rhGAA uptake in the heart and diaphragm (GAA KO mice [1]): increased | loss of rhGAA activity in whole blood (rhGAA (e.g., Myozyme®); 2.5 μM 1-DNJ-HCl, 6-hr time course): ~20% | increase of plasma half-life of rhGAA [4]: 2 fold | GAA thermostability (GAA's melting temperature) ([5]; 1, 10, 100 μM 1-DNJ-HCl, dose-dependent): increases GAA thermostability
Compound: OC[C@H]1NC[C@H](O)[C@@H](O)[C@@H]1O [1-DNJ-HCl, 1-deoxynojirimycin hydrochloride]
GAA levels [2]: increased GAA levels | effect on rhGAA enzyme inactivation in whole blood (rhGAA (e.g., Myozyme®); 50 μM 1-DNJ-HCl, Myozyme® 0.5 μM, up to 24 hrs, hydrochloride): stabilized rhGAA and prevented enzyme inactivation; also recorded: prevents rhGAA enzyme inactivation | stabilizing rhGAA in whole blood, concentration comparison (rhGAA (e.g., Myozyme®); 50 and 100 μM 1-DNJ-HCl, 6 hrs): best for stabilizing rhGAA and preventing enzyme inactivation | Myozyme® tissue uptake (as a measure of GAA activity), effect of coadministration (GAA KO mice [3]): dose-dependent increase in Myozyme® uptake | stability of Myozyme® (heat required to denature) on addition of the ASSC ([5]; pH 7.4, 100 μM 1-DNJ-HCl, vs Myozyme® alone, hydrochloride): required significantly more heat to denature

Compound: alglucosidase alfa [Lumizyme®]
Protein solubility ([6]; Arginine 100 mM, 1-DNJ-HCl 32 mg/mL): 201 mg/mL | Protein solubility ([6]; Arginine + Glutamic acid 50 mM + 50 mM, 1-DNJ-HCl 160 mg/mL): 242 mg/mL | Protein solubility ([6]; Gamma-cyclodextrin 10% (w/v), 1-DNJ-HCl 160 mg/mL): 114 mg/mL | Protein solubility ([6]; PEG400 5% (w/v), 1-DNJ-HCl 160 mg/mL): 158 mg/mL | Protein solubility ([6]; Proline 250 mM, 1-DNJ-HCl 160 mg/mL): 195 mg/mL | solubility of the protein ([6]; without the added excipients): about 80 mg/mL | rhGAA activity uptake, Biceps (GAA KO mice [7]): 56.0 nmol/mg/h | rhGAA activity uptake, Diaphragm (GAA KO mice [7]): 4.2 nmol/mg/h | rhGAA activity uptake, Gastrocnemius (GAA KO mice [7]): 2.0 nmol/mg/h | rhGAA activity uptake, Heart (GAA KO mice [7]): 1.9 nmol/mg/h | rhGAA activity uptake, Quadriceps (GAA KO mice [7]): 2.1 nmol/mg/h | rhGAA activity uptake, Skin (GAA KO mice [7]): 75 nmol/mg/h | rhGAA activity uptake, Soleus (GAA KO mice [7]): 2.7 nmol/mg/h | rhGAA activity uptake, Tongue (GAA KO mice [7]): 2.7 nmol/mg/h | rhGAA activity uptake, Triceps (GAA KO mice [7]): 88.0 nmol/mg/h
